Source: publication PMC6161613

Key:
Dansyl-calmodulin (rat) [1] = molecular target: Dansyl-calmodulin (rat) (UniProt P0DP29); assay: other fluorescence titration; D-CaM (12.5 nM) fluorescence enhancement on adding increasing concentrations of GST-fusion protein; absence of Ca2+ (10 mM EGTA added); Hill fit; apparent binding affinity (EC50)
Dansyl-calmodulin (rat) [2] = molecular target: Dansyl-calmodulin (rat) (UniProt P0DP29); assay: other fluorescence titration; D-CaM (12.5 nM) fluorescence enhancement on adding increasing concentrations of GST-fusion protein; 3.9 μM free Ca2+; Hill fit; apparent binding affinity (EC50)
[3] = molecular target: GST-Kv7.2 helices A-B fusion protein (G310-L548) K526N (human); assay: pull-down; purified GST fusion proteins immobilised on GSH-Sepharose 4B beads; CaM (10 μg) added, 45 min, room temperature; 25 mM Hepes, 120 mM KCl, 5 mM NaCl, pH 7.5 with 100 μM CaCl2; anti-CaM Western blot, band intensities quantified (n = 3)

| Substance | EC50 (Dansyl-calmodulin (rat) [1]) | EC50 (Dansyl-calmodulin (rat) [2]) | percent lower CaM signal intensity than WT [3] |
| --- | --- | --- | --- |
| GST-Kv7.2 helices A-B fusion protein (G310-L548) K526N (domain or fragment) | 37.3 nM | 55.9 nM | – |
| GST-Kv7.2 helices A-B fusion protein (G310-L548) R333Q (domain or fragment) | 12.6 nM | 30.1 nM | – |
| Recombinant rat brain calmodulin (from UniProt P0DP29 1-149) (natural protein) | – | – | 42% |
